Columns and labels:
Assay in all cases: SPR, KD relative to WT C2;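 also: biacore SPR at 37 °C, anti-C2 mAbs captured via immobilised goat anti-human IgG, C2 alanine or serine surface mutants as analytes, 1:1 model fitted, double-referenced sensograms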
human C2 A326S = molecular target: T1, human C2 A326S (human, UniProt P06681 21-752)
T1 sequence: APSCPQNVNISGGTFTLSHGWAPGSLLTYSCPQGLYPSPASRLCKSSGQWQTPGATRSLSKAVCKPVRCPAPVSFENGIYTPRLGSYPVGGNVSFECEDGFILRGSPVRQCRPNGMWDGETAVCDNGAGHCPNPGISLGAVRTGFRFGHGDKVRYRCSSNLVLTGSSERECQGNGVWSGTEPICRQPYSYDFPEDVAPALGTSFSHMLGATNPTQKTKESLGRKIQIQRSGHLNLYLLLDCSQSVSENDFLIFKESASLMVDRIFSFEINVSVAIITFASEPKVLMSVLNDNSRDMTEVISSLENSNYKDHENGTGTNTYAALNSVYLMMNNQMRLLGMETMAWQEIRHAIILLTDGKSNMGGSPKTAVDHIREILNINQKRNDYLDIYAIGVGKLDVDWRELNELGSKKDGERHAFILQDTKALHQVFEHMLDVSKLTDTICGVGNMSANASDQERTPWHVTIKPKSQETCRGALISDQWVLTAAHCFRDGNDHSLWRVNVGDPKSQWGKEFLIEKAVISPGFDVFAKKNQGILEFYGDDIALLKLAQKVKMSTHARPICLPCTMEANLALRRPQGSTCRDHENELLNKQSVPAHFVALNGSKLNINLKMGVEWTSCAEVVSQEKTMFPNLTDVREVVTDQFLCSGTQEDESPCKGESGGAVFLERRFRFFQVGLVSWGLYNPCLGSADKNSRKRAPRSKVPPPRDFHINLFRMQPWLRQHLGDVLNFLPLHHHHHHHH

human C2 K329A = molecular target: T2, human C2 K329A (human, UniProt P06681 21-752)
T2 sequence: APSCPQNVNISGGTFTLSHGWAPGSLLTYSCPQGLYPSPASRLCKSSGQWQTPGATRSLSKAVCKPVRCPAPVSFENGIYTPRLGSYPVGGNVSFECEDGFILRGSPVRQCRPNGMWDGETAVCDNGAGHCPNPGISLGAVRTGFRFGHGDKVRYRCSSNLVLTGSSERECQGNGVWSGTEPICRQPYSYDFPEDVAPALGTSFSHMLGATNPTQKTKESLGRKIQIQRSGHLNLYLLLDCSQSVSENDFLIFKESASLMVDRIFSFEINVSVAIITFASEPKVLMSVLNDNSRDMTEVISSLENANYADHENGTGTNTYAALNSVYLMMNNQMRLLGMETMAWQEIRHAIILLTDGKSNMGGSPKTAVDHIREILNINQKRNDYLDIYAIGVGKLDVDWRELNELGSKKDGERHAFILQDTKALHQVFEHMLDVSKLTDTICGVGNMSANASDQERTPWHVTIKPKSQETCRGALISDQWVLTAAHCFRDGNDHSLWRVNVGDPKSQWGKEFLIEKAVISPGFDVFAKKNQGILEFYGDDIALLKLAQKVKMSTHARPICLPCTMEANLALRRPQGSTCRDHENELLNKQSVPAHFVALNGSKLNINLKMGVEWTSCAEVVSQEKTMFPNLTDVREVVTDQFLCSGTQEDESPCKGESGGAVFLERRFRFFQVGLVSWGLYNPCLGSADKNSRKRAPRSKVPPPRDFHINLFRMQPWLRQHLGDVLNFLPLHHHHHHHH

human C2 S456A = molecular target: T3, human C2 S456A (human, UniProt P06681 21-752)
T3 sequence: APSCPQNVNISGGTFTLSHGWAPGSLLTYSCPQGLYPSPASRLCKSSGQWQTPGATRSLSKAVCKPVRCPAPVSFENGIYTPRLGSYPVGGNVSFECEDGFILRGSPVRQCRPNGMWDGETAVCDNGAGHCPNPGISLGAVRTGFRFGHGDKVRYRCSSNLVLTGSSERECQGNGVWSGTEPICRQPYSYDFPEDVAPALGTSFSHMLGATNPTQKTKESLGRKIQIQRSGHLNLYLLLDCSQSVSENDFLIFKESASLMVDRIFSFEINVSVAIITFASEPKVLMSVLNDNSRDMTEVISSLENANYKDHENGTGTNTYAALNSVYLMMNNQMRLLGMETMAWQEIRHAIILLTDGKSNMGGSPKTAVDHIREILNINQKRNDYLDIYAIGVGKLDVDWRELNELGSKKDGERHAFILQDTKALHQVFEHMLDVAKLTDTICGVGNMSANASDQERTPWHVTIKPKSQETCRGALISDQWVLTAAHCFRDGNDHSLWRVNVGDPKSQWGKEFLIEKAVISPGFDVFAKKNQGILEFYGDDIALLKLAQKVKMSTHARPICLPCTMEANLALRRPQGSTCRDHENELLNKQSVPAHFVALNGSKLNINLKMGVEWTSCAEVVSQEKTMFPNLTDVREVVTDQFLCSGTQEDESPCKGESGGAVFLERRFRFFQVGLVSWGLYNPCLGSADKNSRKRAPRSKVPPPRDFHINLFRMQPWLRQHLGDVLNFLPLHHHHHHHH

B1: RF16-226 (antibody, human IgG4 S228P, lambda)
heavy: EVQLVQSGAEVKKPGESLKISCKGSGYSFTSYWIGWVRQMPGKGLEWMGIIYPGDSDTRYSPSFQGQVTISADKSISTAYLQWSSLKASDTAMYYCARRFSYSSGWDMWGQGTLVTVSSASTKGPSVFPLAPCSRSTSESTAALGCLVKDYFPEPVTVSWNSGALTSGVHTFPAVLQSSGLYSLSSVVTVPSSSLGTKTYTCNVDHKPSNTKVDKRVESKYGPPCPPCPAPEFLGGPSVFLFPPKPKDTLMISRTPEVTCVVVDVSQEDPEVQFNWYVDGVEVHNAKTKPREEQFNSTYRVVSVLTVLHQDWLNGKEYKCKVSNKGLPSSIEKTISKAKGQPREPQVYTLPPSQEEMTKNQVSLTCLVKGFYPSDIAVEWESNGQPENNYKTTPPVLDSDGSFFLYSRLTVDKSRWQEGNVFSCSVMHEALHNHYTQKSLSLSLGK
light: SYELTQPPSVSVSPGQTARITCSGDALTSKYVAWYQQKSGLAPLLVIYEDTRRPSGIPAKFSGSSSGSVATLTISGAHGDDEADYYCYSTDASGHQRVFGGGTKLTVLSQPKAAPSVTLFPPSSEELQANKATLVCLISDFYPGAVTVAWKADGSPVKAGVETTKPSKQSNNKYAASSYLSLTPEQWKSHRSYSCQVTHEGSTVEKTVAPTECS
notes: pH-dependent anti-C2 antibody from a phage display library; also called WT
Fold diff (human C2 A326S): 1 fold | Fold diff (human C2 K329A): 3 fold | Fold diff (human C2 S456A): 7 fold

— US20220332804A1 (CSL INNOVATION, published 2022)
